Key:
[1] = target: β2-adrenergic receptor C terminally fused with RlucII (β2AR-RlucII) (UniProt P07550); assay: FRET or BRET; live HEK293 cells co-transfected with donor β2AR-RlucII and acceptor NES-Venus-mGsq; stimulated 20 min with increasing concentrations of ISO, epinephrine, norepinephrine or formoterol; data as % of maximal ISO-induced mGsq recruitment
[2] = target: β2-adrenergic receptor C terminally fused with RlucII (β2AR-RlucII) (UniProt P07550); assay: FRET or BRET; live HEK293 cells co-transfected with donor β2AR-RlucII and acceptor NES-Venus-mGs, -mGsi or -mGsq; 48 h after transfection stimulated 20 min with increasing concentrations of ISO; 5 μM coelenterazine H in PBS; data as % of maximal ISO-induced mGs recruitment

Substance | efficacy of recruitment with epinephrine, % of ISO [1] | efficacy of recruitment with formoterol, % of ISO [1] | efficacy of recruitment with norepinephrine, % of ISO [1] | efficacy of ISO-induced recruitment, % of mGs [2]
NES-Venus-mGsq (mini G protein mGsq) | 60% | 80% | 40% | 20%
NES-Venus-mGsi (mini G protein mGsi) | – | – | – | 60%
